Molecular target: SNX27-PDZ WT (human, UniProt Q96L92 43-136)
Assay: ITC

Kd: 4.5 µM
B1: SEMA4C (aa 686–833) (domain or fragment)
chain: LRRRLREELEKGAKATERTLVYPLELPKEPTSPPFRPCPEPDEKLWDPVGYYYSDGSLKIVPGHARCQPGGGPPSPPPGIPGQPLPSPTRLHLGGGRNSNANGYVRLQLGGEDRGGLGHPLPELADELRRKLQQRQPLPDSNPEESSV
